Experimental data: US20260014245A1 (MAX DELBRUECK CENTRUM F R MOLEKULARE MEDIZIN IN DER …, published 2026)

Legend:
[1] = biological target: T1, MERS-CoV RBD (wild type, amino acids G372-L588, AviTag, Twin Strep tag, 6xHis) (MERS-CoV); test: human DPP4
[2] = biological target: T1, MERS-CoV RBD (wild type, amino acids …); test: ELISA on coated RBD, antibody titrated, anti human IgG OD 405 nm
[3] = biological target: T1, MERS-CoV RBD (wild type, amino acids …); test: ELISA, anti Twin-Strep readout OD 405 nm (the Twin-Strep-tagged RBD is detected)
[4] = biological target: T1, MERS-CoV RBD (wild type, amino acids …); test: serum pull-down with RBD coated beads

B1: recombinant human DPP4 with an N-terminal 8xHis-tag (hDPP4-N'His) (receptor)
chain: HHHHHHHHGGGSGGGSGGGSDSRKTYTLTDYLKNTYRLKLYSLRWISDHEYLYKQENNILVFNAEYGNSSVFLENSTFDEFGHSINDYSISPDGQFILLEYNYVKQWRHSYTASYDIYDLNKRQLITEERIPNNTQWVTWSPVGHKLAYVWNNDIYVKIEPNLPSYRITWTGKEDIIYNGITDWVYEEEVFSAYSALWWSPNGTFLAYAQFNDTEVPLIEYSFYSDESLQYPKTVRVPYPKAGAVNPTVKFFVVNTDSLSSVTNATSIQITAPASMLIGDHYLCDVTWATQERISLQWLRRIQNYSVMDICDYDESSGRWNCLVARQHIEMSTTGWVGRFRPSEPHFTLDGNSFYKIISNEEGYRHICYFQIDKKDCTFITKGTWEVIGIEALTSDYLYYISNEYKGMPGGRNLYKIQLSDYTKVTCLSCELNPERCQYYSVSFSKEAKYYQLRCSGPGLPLYTLHSSVNDKGLRVLEDNSALDKMLQNVQMPSKKLDFIILNETKFWYQMILPPHFDKSKKYPLLLDVYAGPCSQKADTVFRLNWATYLASTENIIVASFDGRGSGYQGDKIMHAINRRLGTFEVEDQIEAARQFSKMGFVDNKRIAIWGWSYGGYVTSMVLGSGSGVFKCGIAVAPVSRWEYYDSVYTERYMGLPTPEDNLDHYRNSTVMSRAENFKQVEYLLIHGTADDNVHFQQSAQISKALVDVGVDFQAMWYTDEDHGIASSTAHQHIYTHMSHFIKQCFSLP
notes: range 38-766
Kd [1]: 7.8 nM

B2: LCA60 (antibody, V domains shown)
VH: EVQLLESGGGLVKPGGSLRLSCEASGLTFSNVWMSWVRQAPGKGLEWVGRIKRKSEGATTDYGAPVKGRFTLSRDDSKNTVYLQMNSLKIDDTAVYYCSTLTRGGDVWSSSYYFDYWGQGALVTVSS
VL: QSALTQPASVSGSPGQSITISCTGTSSDVGTYDLVSWYQQHPGKSPKLMIYADIKRPSGVSHRFSGSKSGNTASLTISGLQSADEADYYCCLYAGSSTSVIFGGGTKVT
EC50 (read off the curve) [2]: ~0.03 µg/mL

B3: D12 (antibody, V domains shown)
VH: EVKLVESGGGLVKPGGSLKLSCAASGFTFSSYAMSWVRQTPEKRLEWVATISSGGTYTYYPDSVKGRFTISRDNAENTLYLQMSSLRSEDTAMYYCVRDGNSMDYWGQGTSVTVSS
VL: DIQMTQTTSSLSASLGDRVTIICRASQDINNYLNWYQKPDGTVKLLIYYTSRLHSGVPSRFSGSGSGSDYSLTISNLEQEDIATYFCQQANTLPPTFGAGTKLELR
EC50 (read off the curve) [2]: ~0.04 µg/mL

B4: recombinant mouse DPP4 (mDPP4) (receptor)
chain: SKDEAAADSRRTYSLADYLKSTFRVKSYSLWWVSDFEYLYKQENNILLLNAEHGNSSIFLENSTFESFGYHSVSPDRLFVLLEYNYVKQWRHSYTASYNIYDVNKRQLITEEKIPNNTQWITWSPEGHKLAYVWKNDIYVKVEPHLPSHRITSTGEENVIYNGITDWVYEEEVFGAYSALWWSPNNTFLAYAQFNDTGVPLIEYSFYSDESLQYPKTVWIPYPKAGAVNPTVKFFIVNIDSLSSSSSAAPIQIPAPASVARGDHYLCDVVWATEERISLQWLRRIQNYSVMAICDYDKINLTWNCPSEQQHVEMSTTGWVGRFRPAEPHFTSDGSSFYKIISDKDGYKHICHFPKDKKDCTFITKGAWEVISIEALTSDYLYYISNQYKEMPGGRNLYKIQLTDHTNVKCLSCDLNPERCQYYAVSFSKEAKYYQLGCWGPGLPLYTLHRSTDHKELRVLEDNSALDRMLQDVQMPSKKLDFIVLNETRFWYQMILPPHFDKSKKYPLLLDVYAGPCSQKADASFRLNWATYLASTENIIVASFDGRGSGYQGDKIMHAINRRLGTLEVEDQIEAARQFVKMGFVDSKRVAIWGWSYGGYVTSMVLGSGSGVFKCGIAVAPVSRWEYYDSVYTERYMGLPIPEDNLDHYRNSTVMSRAEHFKQVEYLLIHGTADDNVHFQQSAQISKALVDAGVDFQAMWYTDEDHGIASSTAHQHIYSHMSHFLQQCFSLH
binding result [3]: no binding (tested: about 30 ng/µL)

B5: circulating mouse DPP4 (from serum) (receptor)
chain: SRRTYSLADYLKSTFRVKSYSLWWVSDFEYLYKQENNILLLNAEHGNSSIFLENSTFESFGYHSVSPDRLFVLLEYNYVKQWRHSYTASYNIYDVNKRQLITEEKIPNNTQWITWSPEGHKLAYVWKNDIYVKVEPHLPSHRITSTGEENVIYNGITDWVYEEEVFGAYSALWWSPNNTFLAYAQFNDTGVPLIEYSFYSDESLQYPKTVWIPYPKAGAVNPTVKFFIVNIDSLSSSSSAAPIQIPAPASVARGDHYLCDVVWATEERISLQWLRRIQNYSVMAICDYDKINLTWNCPSEQQHVEMSTTGWVGRFRPAEPHFTSDGSSFYKIISDKDGYKHICHFPKDKKDCTFITKGAWEVISIEALTSDYLYYISNQYKEMPGGRNLYKIQLTDHTNVKCLSCDLNPERCQYYAVSFSKEAKYYQLGCWGPGLPLYTLHRSTDHKELRVLEDNSALDRMLQDVQMPSKKLDFIVLNETRFWYQMILPPHFDKSKKYPLLLDVYAGPCSQKADASFRLNWATYLASTENIIVASFDGRGSGYQGDKIMHAINRRLGTLEVEDQIEAARQFVKMGFVDSKRVAIWGWSYGGYVTSMVLGSGSGVFKCGIAVAPVSRWEYYDSVYTERYMGLPIPEDNLDHYRNSTVMSRAEHFKQVEYLLIHGTADDNVHFQQSAQISKALVDAGVDFQAMWYTDEDHGIASSTAHQHIYSHMSHFLQQCFSLH
binding result [4]: no binding
